This is an account of results in patent US20130101555A1 (CYTOMX THERAPEUTICS, published 2013).

Sequences and labels used below:
B1: PHB3480 (peptide)
peptide: PNCIESFLSSIHDSL
B2: PHB3352 (peptide)
peptide: CFPTVVWRELYNLYG
B3: PHB3343 (peptide)
peptide: ATMYAYLERLEAILS
B4: PHB3479 (peptide)
peptide: EPKCSFCSPLIVPSP
B5: PHB3327 (peptide)
peptide: PYTFVEQVEYWLHAT
B6: PHB3340 (peptide)
peptide: FINNVETALDTIYNL
B7: PHB3489 (peptide)
peptide: ATCYIINHWVERYII
B8: PHB3325 (peptide)
peptide: FLNDIHRFLHWTDLM
B9: PHB3336 (peptide)
peptide: PLYLPEIGWMFGLPT
B10: PHB3333 (peptide)
peptide: ACVIHFLDRISNILE
B11: PHB3349 (peptide)
peptide: IYPLDALLRHLNSLC
B12: PHB3324 (peptide)
peptide: FPLNTFDLVHELLSR
B13: PHB3478 (peptide)
peptide: DFINSMRSHLQSSDQ
B14: PHB3482 (peptide)
peptide: TDNALFLETVQHYLY
B15: PHB3487 (peptide)
peptide: LLSSFVETMSSILTC
B16: PHB3488 (peptide)
peptide: YLLRLPSLEELWGPS
B17: PHB3334 (peptide)
peptide: FCYIAAFSAMQRQSC
B18: PHB3337 (peptide)
peptide: TVLVIPDLHYLYVDR
B19: PHB3486 (peptide)
peptide: ELTQLLNALVDVRNC
B20: PHB3485 (peptide)
peptide: CYPSISWLFADAPRN
B21: PHB3476 (peptide)
peptide: NLDFYLNHLYNTLAG
B22: PHB3341 (peptide)
peptide: SAKHLHPGRLPPMTK
B23: peptide derived from Jagged1 displayed by clone Jag-ecpX3 (peptide)
peptide: RVTCDDYYYGFGCNKFGRPA
notes: also called Jagged1-derived peptide; fragment of JAG1

In one experiment the target is T1, human Notch1 EGF-like domains 11-13 fused to the Fc domain of human IgG1 (hN111-13-hFc) (human, UniProt P46531 411-526, biotinylated with NHS-PEG-biotin (hN111-13-hFc-biot) or labeled with DyLight-488, depending on the round).
T1 construct: also called hN111-13-hFc-biot; hN111-13-hFc-Dy488; not shown: Fc domain of human IgG1 as encoded by pINFUSE-hIgG1-Fc2 (InvivoGen)
T1 sequence (P46531 411-526 limits assumed): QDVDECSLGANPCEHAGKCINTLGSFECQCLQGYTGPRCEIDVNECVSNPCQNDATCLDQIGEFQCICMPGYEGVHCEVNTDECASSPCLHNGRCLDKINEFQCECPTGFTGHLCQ
The experiment is described as follows: bacterial display library screen, magnetic selection and FACS with labeled hN111-13-hFc. On the procedure: Following two rounds of magnetic selection, the remaining rounds of screening were performed on a Becton Dickinson FACSAria flow cytometer. In the first round of FACS, induced cells were incubated with 500 nM hN1₁₁₋₁₃-hFc-biot, 10 μM hIgG in TBS-Ca-B, washed, and incubated with fluorescent secondary label neutravidin-phycoerythrin (NAPE) (Invitrogen) at 10 nM, before sorting by flow cytometry for fluorescently labeled cells. Cells amplified from overnight growth of the first round FACS population were induced and subjected to a second round of sorting with the same labeling conditions as in the first round or, alternatively, using 50 nM hN1₁₁₋₁₃-hFc-biot. A third round of sorting was conducted as in the second round but with 100 nM hN1₁₁₋₁₃-hFc-biot and the addition of 27 nM Ypet-Mona-SH3 in the secondary labeling step. Mona-SH3 binds an epitope on the C-terminus of the display scaffold, independent of the random peptide on the N-terminus. Cells were then sorted based on the ratio of 576 nm fluorescence (i.e. NAPE binding) to 530 nm fluorescence (i.e. Ypet-Mona binding) in order to normalize for differences in scaffold display level on individual cells.
Alternatively, third round sorting was conducted by incubating induced cells with 10 nM or alternatively, 50 nM unbiotinylated hN1₁₁₋₁₃-hFc in TBS-Ca-B before washing, labeling with fluorescent secondary 20 μg/ml anti-hIgG-DyLight-488, and sorting based on 530 nm fluorescence. Third round sorting was also conducted using either 50 nM or 250 nM hN1₁₁₋₁₃-hFc that had been fluorescently labeled with DyLight-488 (Thermo Pierce) (hN1₁₁₋₁₃-hFc-Dy488), and 10 μM hIgG, with no secondary labeling.
For the molecule B1, the binding result is “binds”.

Regarding B2, the binding result is “binds”.

As for B3, the binding result is “binds”.

Consider B4, for which the binding result is recorded as “binds”.

Regarding B5, the binding result is “binds”.

Take B6: the binding result was “binds”.

With B7, the binding result is recorded as “binds”.

For B8, the binding result is given as “binds”.

As for B9, the binding result is “binds”.

For the molecule B10, the binding result was “binds”.

For the molecule B11, the binding result is on record as “binds”.

As to B12, the binding result is on record as “binds”.

Consider B13, for which the binding result was “binds”.

As for B14, the binding result is recorded as “binds”.

With B15, the binding result is reported as “binds”.

B16: the binding result is reported as “binds”.

Turning to B17, the binding result is recorded as “binds”.

B18: the binding result is “binds”.

In the case of B19, the binding result was “binds”.

On to B20, for which the binding result is listed as “binds”.

B21: the binding result is reported as “binds”.

With B22, the binding result was “binds”.

In another experiment the target is T1, human Notch1 EGF-like domains 11-13 …. The experiment is described as follows: flow cytometry of induced E. coli clones, 100 nM hN111-13-hFc-biot then 10 nM SAPE, normalized to scaffold display level. On the procedure: Individual clones were tested by flow cytometry for hN1₁₁₋₁₃-hFc binding by labeling induced cells in TBS-Ca-B with (A.) 50 nM hN1₁₁₋₁₃-hFc-biot or (B.) 100 nM […] hN1₁₁₋₁₃-hFc-biot, followed by 10 nM Streptavidin-R-phycoerythrin (SAPE). Cells were separately labeled with 27 nM Ypet-Mona to measure peptide display level. The display scaffold alone (ecpX3) was used as a negative control.
For orientation: Flow cytometry measures light scatter and fluorescence of single cells or particles in a stream.
For B23, the binding result is given as “binds”.
